Results taken from patent publication US20150086574A1 (CELLERANT THERAPEUTICS, published 2015).

Columns and labels:
[1] = molecular target: T cell Immunoglobulin- and Mucin domain-containing molecule 3 (TIM3), human, on cells (human) (UniProt Q8TDQ0); assay: flow cytometry; cells not named in the table (Example 5 uses Pfeiffer cells)
[2] = molecular target: T1, T cell Immunoglobulin- and Mucin domain-containing molecule 3 (TIM3), human, on cells (human, UniProt Q8TDQ0 22-301); assay: flow cytometry, TIM3 expressing cell lines
T1 construct: TIM3 as carried by human cell lines (Pfeiffer, Daudi, CMK) and by primary cells of patients; also called HAVCR2; KIM-3
T1 sequence: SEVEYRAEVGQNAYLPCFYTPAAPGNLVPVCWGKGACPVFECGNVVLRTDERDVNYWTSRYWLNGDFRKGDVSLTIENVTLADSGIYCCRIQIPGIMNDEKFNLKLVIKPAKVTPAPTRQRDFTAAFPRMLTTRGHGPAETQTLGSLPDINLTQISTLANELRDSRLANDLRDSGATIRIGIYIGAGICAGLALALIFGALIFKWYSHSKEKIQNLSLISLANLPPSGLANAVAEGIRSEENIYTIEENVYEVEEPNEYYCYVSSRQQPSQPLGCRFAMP

[3] = molecular target: T1, T cell Immunoglobulin- and Mucin …; assay: cell-based or functional assay
[4] = molecular target: T1, T cell Immunoglobulin- and Mucin …; assay: cell binding (flow cytometry), Pfeiffer cells
[5] = molecular target: T1, T cell Immunoglobulin- and Mucin …; assay: flow cytometry, PBMCs of AML patient 3, Blast population
[6] = molecular target: T1, T cell Immunoglobulin- and Mucin …; assay: flow cytometry, PBMCs of AML patient 3, CD34+CD38- population
[7] = molecular target: T1, T cell Immunoglobulin- and Mucin …; assay: flow cytometry; cells not named in the table (Example 5 uses Pfeiffer cells)

## Mouse IgG1k-BZAP (antibody)
[1]
  % Positive for TIM3: 0.501%
  GeoMean (Intensity of TIM3 binding): 5.33

## Mouse IgG2ak-Biotin (antibody)
[1]
  % Positive for TIM3: 0.49%
  GeoMean (Intensity of TIM3 binding): 5.83

## Mouse IgG1k-Biotin (antibody)
[1]
  % Positive for TIM3: 0.192%
  GeoMean (Intensity of TIM3 binding): 5.06

## IgG2bk-BZAP (antibody)
[1]
  % Positive for TIM3: 0.195%
  GeoMean (Intensity of TIM3 binding): 6.48

B1: 27.12A6 (antibody, V domains shown)
VH: EVKLVESGGGLVQPGGSLNLSCAASGFTFSSYTMSWVRQTPEKRLEWVAYISSGGHSTYFPDTVKGRFTISRDNAKNTLYLQMSSLKSEDTAVYYCARGGYGNYGPYYNMDYWGQGTSVTVSS
VL: NIMMTQSPSSLAVSAGEKVTMSCKSSQSVLYSSNQKNYLAWYQQKPGQSPKLLIYWASTRESGVPDRFTGSGSGTDFTLTINNVQAEDLAVYYCHQYLSSWTFGGGTKLEIK
notes: also called 27.12A6 (D2.2)
[2]
  binding result: binds

B2: 6.16F9 (antibody, V domains shown)
VH: EVNLVESGGGLVQPGGSLKLSCAASGFTFSSYTMSWVRQSPEKRLEWVAYTSSSGASTYYPDTVKGRFTISRDNAKNTLHLQMSSLKSEDTAMYYCARGGYGNYGPYYALDYWGQGTSVTVSS
VL: NIMMTQSPSSLAVSAGEKVTMSCKSSQSVLYSSNQKNYLAWYQQKPGQSPKLLIYWASTRESGVPDRFTGSGSETDFTLTISSVQTEDLAVYYCHQYLSSWTFGGGTKLEIK
notes: also called 6.16F9 (D2.4)
[2]
  binding result: binds

B3: 9.1G12 (antibody, V domains shown)
VH: EVMLVESGGGLVKPGGSLKLSCAASGFTFSSYAMSWVRQTPERKLEWVATISSGGTYTYYPDSVKGRFTISRDNAKNRLYLQMSGLRSEGTAMYYCVRPDYTHDDGGFAYWGQGTLVTVSA
VL: QAVVTQESALTTSPGETVTLTCRSSTGAVTTSNYANWVQEKPDHLFTGLIGGTNNRAPGVPARFSGSLIGDKAALTITGAQTEDEAIYFCALWYSNHWVFGGGTKLTVL
notes: also called 9.1G12.8
[3]
  IL-6 release from activated CD4+ T cells (ELISA), antibody at 5 ug/ml: > 2 fold reduction
[4]
  percentage of cell binding: 14%
[5]
  percent binding: 0.67%
[6]
  percent binding: 0.23%

B4: 9.1G12.8-Biotin (antibody, V domains shown)
VH: EVMLVESGGGLVKPGGSLKLSCAASGFTFSSYAMSWVRQTPERKLEWVATISSGGTYTYYPDSVKGRFTISRDNAKNRLYLQMSGLRSEGTAMYYCVRPDYTHDDGGFAYWGQGTLVTVSA
VL: QAVVTQESALTTSPGETVTLTCRSSTGAVTTSNYANWVQEKPDHLFTGLIGGTNNRAPGVPARFSGSLIGDKAALTITGAQTEDEAIYFCALWYSNHWVFGGGTKLTVL
notes: 9.1G12 (mouse IgG2b,l) biotinylated
[7]
  % Positive for TIM3: 55.4%
  GeoMean (Intensity of TIM3 binding): 23.1

B5: 9.1G12.8-BZAP (antibody, V domains shown)
VH: EVMLVESGGGLVKPGGSLKLSCAASGFTFSSYAMSWVRQTPERKLEWVATISSGGTYTYYPDSVKGRFTISRDNAKNRLYLQMSGLRSEGTAMYYCVRPDYTHDDGGFAYWGQGTLVTVSA
VL: QAVVTQESALTTSPGETVTLTCRSSTGAVTTSNYANWVQEKPDHLFTGLIGGTNNRAPGVPARFSGSLIGDKAALTITGAQTEDEAIYFCALWYSNHWVFGGGTKLTVL
notes: Biotinylated 9.1G12 (mouse IgG2b,l) conjugated to streptavidin-saporin (SAv-ZAP); also called 9.1G12-BZAP
[7]
  % Positive for TIM3: 97.4%
  GeoMean (Intensity of TIM3 binding): 168

B6: 27.12E12-Biotin (antibody, V domains shown)
VH: EVQLQQSGAELVRPGALVKLSCKASGFNIKDYYMYWMKQRPEQGLEWIGWIDPENVKTIYDPKFQGRATLTADTSSNTAYLQLSSLTSEDTAVYYCTRDFGYVGFFDVWGAGTTVTVSS
VL: DIVMTQSQKFMSTSVGDRVSVNCKASQNVGTNVVWYQQKPGQSPKALIYSASYRYSGVPDRFTGSGSGTDFTLTISTVQSEDLAEYFCQQYNSYPLTFGGGTKLEIKR
notes: 27.12E12 (mouse IgG2b,k) biotinylated
[7]
  % Positive for TIM3: 96.8%
  GeoMean (Intensity of TIM3 binding): 202

B7: 27.12E12-BZAP (antibody, V domains shown)
VH: EVQLQQSGAELVRPGALVKLSCKASGFNIKDYYMYWMKQRPEQGLEWIGWIDPENVKTIYDPKFQGRATLTADTSSNTAYLQLSSLTSEDTAVYYCTRDFGYVGFFDVWGAGTTVTVSS
VL: DIVMTQSQKFMSTSVGDRVSVNCKASQNVGTNVVWYQQKPGQSPKALIYSASYRYSGVPDRFTGSGSGTDFTLTISTVQSEDLAEYFCQQYNSYPLTFGGGTKLEIKR
notes: Biotinylated 27.12E12 (mouse IgG2b,k) conjugated to streptavidin-saporin (SAv-ZAP)
[7]
  % Positive for TIM3: 98.8%
  GeoMean (Intensity of TIM3 binding): 268

B8: 27.2H4 (antibody, IgG1, V domains shown)
VH: EVQLQQSGAELVRPGALVKLSCKASGFNIKHYYIHWVNQRPEQGLEWIGWIDPETGNTIYDPKFQGKASITADTSSSTAYLQLNSLTSEDTAVYCCARGWSYAMDYWGQGTSVIVSS
VL: DIVMTQSHKFMSTSVGDRVSITCKASQDVNTAVAWYQQKPGHSPKLLIYSASYHYTGVPDRFTGSGSGTDFTFTISSVQAEDLAVYYCQQHYSTPWTFGGGTKLEIK
notes: also called 27.2H4 (D2.1)
[4]
  percentage of cell binding: 75%
[5]
  percent binding: 1.07%
[6]
  percent binding: 0.69%

B9: 7.10F6 (antibody, IgG1, V domains shown)
VH: EVQLVESGGGLVQPGGSLKLSCAASGFIFSGYGMSWVRQTPDKRLELVAIINSNGGSVDYPDSVKGRVTISRDNAKNTLYLQMSSLKSEDTAMYYCARIYYRCMDYWGQGTSVTVSS
VL: NIMMTQSPSSLAVSAGEKVTMSCKSSQSLLYSSNQKNYLAWYQQKPGQSPKLLIYWASARESGVPDRFTGGGSGTDFTLTISSVQAEDLAVYYCHQYLSSYTFGGGTKLEIKR
notes: also called 7.10F6.1; 7.10F6.1-pure
[3]
  IFN-gamma release from activated CD4+ T cells (ELISA), antibody at 5 ug/ml: > 2 fold reduction
[4]
  percentage of cell binding: 92%
[5]
  percent binding: 1.33%
[6]
  percent binding: 0.6%
[7]
  % Positive for TIM3: 93.3%
  GeoMean (Intensity of TIM3 binding): 142

B10: 6.14B9-Biotin (antibody, V domains shown)
VH: DVQLQESGPGLVKPSQSLSLTCTVTGYSITSDYAWNWIRQFPGNKLEWMGYISYSGSISYNPSLKSRISITRDTSKNQFFLQLNSVTTEDTATYYCARSGRLRRDFDYWGQGTTLT
VL: DIQMTQSPSSLSASLGERVSLTCRASQEISGYLSWLQQKPDGTIKRLIYAASTLDSGVPKRFSGSRSGSDYSLTISSLESEDFADYYCLQYASYPLTFGAGTKLELK
notes: 6.14B9 (mouse IgG1,k) biotinylated
[7]
  % Positive for TIM3: 48.2%
  GeoMean (Intensity of TIM3 binding): 20.4

B11: 6.14B9-BZAP (antibody, V domains shown)
VH: DVQLQESGPGLVKPSQSLSLTCTVTGYSITSDYAWNWIRQFPGNKLEWMGYISYSGSISYNPSLKSRISITRDTSKNQFFLQLNSVTTEDTATYYCARSGRLRRDFDYWGQGTTLT
VL: DIQMTQSPSSLSASLGERVSLTCRASQEISGYLSWLQQKPDGTIKRLIYAASTLDSGVPKRFSGSRSGSDYSLTISSLESEDFADYYCLQYASYPLTFGAGTKLELK
notes: Biotinylated 6.14B9 (mouse IgG1,k) conjugated to streptavidin-saporin (SAv-ZAP)
[7]
  % Positive for TIM3: 43.9%
  GeoMean (Intensity of TIM3 binding): 22.5

B12: 1.7E10 (antibody, V domains shown)
VH: EVKLLESGGGLVQPGGSLKLSCAASGFDFSRYWMSWVRQAPGKGLEWIGEINPDSSTINYTPSLKDKFIISRDNAKNTLFLQMSKVRSEDTALYYCARPSYDGYYGYAMDYWGQGTSVTVSS
VL: DIVLTQSPASLAVSLGQRATISCRASESVDSYGKSFMHWYQQKPGQPPKLLIYRASNLESGIPARFSGSGSRTDFTLTINPVEADDVATYYCQQSNEDPYTFGGGTKLEIKR
[3]
  IFN-gamma release from activated CD4+ T cells (ELISA), antibody at 5 ug/ml: > 2 fold reduction

B13: 1.7E10.12-Biotin (antibody, V domains shown)
VH: EVKLLESGGGLVQPGGSLKLSCAASGFDFSRYWMSWVRQAPGKGLEWIGEINPDSSTINYTPSLKDKFIISRDNAKNTLFLQMSKVRSEDTALYYCARPSYDGYYGYAMDYWGQGTSVTVSS
VL: DIVLTQSPASLAVSLGQRATISCRASESVDSYGKSFMHWYQQKPGQPPKLLIYRASNLESGIPARFSGSGSRTDFTLTINPVEADDVATYYCQQSNEDPYTFGGGTKLEIKR
notes: 1.7E10 (mouse IgG1,k) biotinylated with the EZ-link Sulfo NHS-LC-Biotinylated kit
[7]
  % Positive for TIM3: 99.2%
  GeoMean (Intensity of TIM3 binding): 354

B14: 1.7E10.12-BZAP (antibody, V domains shown)
VH: EVKLLESGGGLVQPGGSLKLSCAASGFDFSRYWMSWVRQAPGKGLEWIGEINPDSSTINYTPSLKDKFIISRDNAKNTLFLQMSKVRSEDTALYYCARPSYDGYYGYAMDYWGQGTSVTVSS
VL: DIVLTQSPASLAVSLGQRATISCRASESVDSYGKSFMHWYQQKPGQPPKLLIYRASNLESGIPARFSGSGSRTDFTLTINPVEADDVATYYCQQSNEDPYTFGGGTKLEIKR
notes: Biotinylated 1.7E10 (mouse IgG1,k) conjugated to streptavidin-saporin (SAv-ZAP)
[7]
  % Positive for TIM3: 99.3%
  GeoMean (Intensity of TIM3 binding): 436

B15: 33.1G12 (antibody, IgG1, V domains shown)
VH: EVQLQQSGPELVKPGASVKISCKASGYSFTGYLMNWVMQSHGKSLEWIGRINPYNGDIFYNQKFKDKATLTVDKSSSTAHMELRSLASEDSAVYYCARRDENFDYDNAMDYWGQGTSVTL
VL: DIVLTQSPASLAVSLGQRATISCRASESVDIYGNSFMHWYQQKPGQPPKLLIYRASNLESGIPARFRGSGSRTDFTLTIYPVEADDVATYYCQQSNEDPWTFGGGTKLEIK
notes: the printed VH ends early (…GQGTSVT)
[2]
  binding result: binds
